Data from the DeepSol protein solubility set.

Assay: soluble on expression in E. coli; label from the status in PepcDB or PDB records

Sequence | soluble on expression in E. coli
MADKKAPAAGWPVANGEYVVGNPESCVAVITLGSHGLDQAAIDAGAAISGPCHTENLGIEKVVANYISNPNIRFMVIAGSEVQGHITGQCIKALYENGIGDDGGIIGAKGAIPFMENVGKEPVGRLQTQVVECIDLIDVEDKGKIADAIKNCISKDPGAFEEDPMVIELEGGAAAAGDEEGGLMIEGIPTVAEPDIESIKSLNEALDYKVGLMTRDLGLASGVQTETVTG | not soluble
MGSDKIHHHHHHMLLMPTKDWRWEFNEEYGQLALSLDTQMSFLTAYKTKMLIPDALKGMKFSVEHAKFYIRMLERLPQLLTLSDAMIVQTALNATAAHFLLKPQMPKSWFFDVSDECVYFDLGKVFQLKNNQQSMLVLVVEVGLQSVLVMNLSAACQLSDNKSLGQFDTIKVMHDRLHPLSRAKQIVAA | not soluble
MSLEIIKTGLAAFGMSGQVFHAPFISTNPHFELYKIVERSKELSKERYPQASIVRSFKELTEDPEIDLIVVNTPDNTHYEYAGMALEAGKNVVVEKPFTSTTKQGEELIALAKKKGLMLSVYQNRRWDADFLTVRDILAKSLLGRLVEYESTFARYRNFIKPNTWKETGESGGGLTYNLGSHLIDQAIQLFGMPEAVFADLGILREGGKVDDYFIIHLLHPSLAPNVKITLKASYLMREAEPRFALHGTLGSYVKYGVDKQEAALLAGEIPERPNWGEESEQEWGLLHTEINGKEICRKYPGIAGNYGGFYQNIYEHLCLGQPLETHAQDILNVIRIIEAAYQSHRENKIVNLKEGHHHHHH | soluble
MPYYTNDDNDVDDFTEYDPMPYSGGYDITVTYGRSIPPSDETCYPLSSLSGDAFEYQRPNFSSNHDSSAYDDQALKTEYSSYARPGPVGSGSDFGRKPNSGYGGRTEVEYGRKTESEHGSGYGGRIESDYVKPSYGGHEDDGDDGHKKHSGKDYDDGDEKSKKKEKEKKKDKKKDGNNSEDDEFKKKKKKEQYKEHHDDDDYDEKKKKKKDYNDDDEKKKKKHYNDDDDEKKKKHNYNDDDDEKKKKKEYHDDEDKKKKKHYDNDDDEKKKKKDHRDDDDEKKKKKDKHHKGHD | soluble
MAHHHHHHMSTHIERLQSEDEVAFKLKGEIAAIEKEIKSWFIKRRLNMELNYSLHNLFTNYNIVGLSINKKIDLKEKMLWHDIVNGKPTLEDTLSLDAKEYKADVYRKMWENSTTTDNPCRLVGSIFFRCLKGNYQLTEQEREGTCMHSFLNFTHCRKALKLQQANNIRTALTKQSAEDTQAKALFERRSALLGKLTGSAP | not soluble
SAQTTDTGWMTNPQHPPVQTRFVLTGQQDPQAKTLTGYLDVKLTGDWKTYWRSPGEGGVAPSIDWQNSQNLSKVDWQWPYPQKFELLGIETLGYKGDTLFPMTLHIDNMSKPVTIDAVLTLSSCTTICVLTDYQIQLTFLPSELQIDEQVMFSYAQAVSNVPQPSPFIDVTQASWDANQSKLQIKLTNTQGWNQPQVLVDGVDEATRDYSFKLEGIHQEGNTVTASYLVDTWLGDVELSDQSLFVTIKDANLLAEETTQAIAEAIVDPLPSTSVVS | soluble
MSLNFTEDGTLPLLGSKDAKIAIIEFSDFQCPYCKRFTDSAFKQIKENYIDTGKVQYIARDFPLSFHAKAMGAAIAATCSLHQNSYWPMRDMLFSNVKDLGEELYQKAATDLSLNLEEFNKCMKDKSIANKVEQDLTLGKSLGIRGTPSFLIGRVENDQLIEPQIVVGAQRYAVFESLLEQLSNSDKAKEGHHHHHH | soluble
MGSDKIHHHHHHMNHLLKQAKRVASECECGHEHQWIEMDELQLGRNAINYLPEYLHEKGLLHVTIVADANTYAVAGQLVAQLLKGRGIDVENCILKEQGALTLLADEHGLGQLVIGAAKETDVFLAVGAGTIHDLTRIASYKFGKPFIAIPTAPSVDGFTSMGAPVIRDGVKITFQTQAPIALFADLDFLTQAPRSMVAAGFGDMLGKSTSLVDWQVSHMLNDEPFCPAVFHMTKSALTMCMEHADEIAACNEQGIRLLTEALIMSGLAMLIFGHSHPASGAEHHLSHYWEMAFLRSGGTQPLHGAKVGYATMLISALYKNEARKKIETFQGEGSPLVNSIHKHRERLLMLIDTIPESSDIQRLLESVGGAVKSADLALADSLEDEALEKAHKLRERCTLLYCLNEHLKTS | not soluble
MGSDKIHHHHHHMSMVQSAFPPRRNSVGVQVGSIRIGGGAPIVVQSMTNTDTEDEIATTVQVAQLARAGSELVRITVNTAEAARAVPGIRARLDDMGCQVPLIGDFHFNGHKLVTEYPGCARALAKYRINPGNVGHGKKRDEQFSILIEAACKYEKPVRIGVNWGSLDPELLARMMDENARSGDPRDASAVMYEALITSALQSAERAEEIGLGRDRIILSCKMSGVRDLITVYRALAARCDYALHLGLTEAGMGSKGIVASTAALSVLLLEGIGDTIRISLTPEPGGDRAREVVVAQEILQTTGLRAFVPLVAACPGCGRTTSTYFQELAESIQGYVREQMLVWREEYEGVENMTLAVMGCVVNGPGESKHANIGISLPGSGERPVAPVFVDGQKAVTLKGDNIAGEFRQIVDEYVQMKYPKKAVDAH | not soluble
MSLNRDQSDLHIDELLADPFGGNIEIPGSEAVKAEKEQVRLVDVLPEENKEKAIQLAGQIDHKNMQSIVLYGSQAQSKLLNFSHDMINHVQKKDVGEIGEILGELMKKLEQVNPDDLQSKKKGFLARMFGRVSSSLQEVLSKYQKTSVQIDRISLKLEHSKNALISDNKLLEQLYEKNKEYFAALNVYIAAGELKLEELKTKTIPELKQQAESSDHNQMAVQEVNDLIQFADRLDKRVHDLLLSRQITIQSAPQIRLIQNTNQALAEKIQSSIVTAIPLWKNQVAIALTLLRQRNAVDAQQKVSDTTNELLLKNAELLKTNTIETARANERGLVDIDTLKKVQESLISTLEETLTIQEEGRIKRRQAEEELMMMEGDLKQKLITIKEREGHHHHHH | soluble
MGSDKIHHHHHHMKYILVTGGVISGIGKGVIASSVGTILKSCGLHVTSIKIDPYINIDAGTFSPYEHGEVFVLDDGGEVDLDLGNYERFLDIRLTKDNNLTTGKIYQYVINKERKGDYLGKTVQVVPHITDAIQEWVMRQALIPVDEDGLEPQVCVIELGGTVGDIESMPFIEAFRQFQFKVKRENFCNIHVSLVPQPSSTGEQKTKPTQNSVRELRGLGLSPDLVVCRCSNPLDTSVKEKISMFCHVEPEQVICVHDVSSIYRVPLLLEEQGVVDYFLRRLDLPIERQSRKMLMKWKEMADRYDRLLETCSIALVGKYTKFSDSYASVIKALEHSALAINHKLEIKYIDSTDLEPSTLQEEPVRYHEAWQKLCSAHGVLVPGGFGVRGTEGKIQAIAWARKQKKPFLGVCLGMQLAVVEFSRNVLGWQDANSTEFDPKTSHPVVIDMPEHNPGQMGGTMRLGKRRTLFQTKNSVMRKLYGDTDYLEERHRHRFEVNPVLKKCLEEQGLKFVGQDVEGERMEIVELEDHPFFVGVQYHPEFLSRPIKPSPPYFGLLLASVGRLPHYLQKGCRLSPRDTYSDRSGSSSPDSEITELKFPSISQD | not soluble
MSSPTATKYDVFLSFRGLDTRRNFISFLYKELVRRKIRTFKDDKELENGRRISPELKRAIEESKFAVVVVSVNYAASPWCLDELVKIMDFENKGSITVMPIFYGVDPCHLRRQIGDVAEQFKKHEAREEDHEKVASWRRALTSLASISGECSLKWEDEANLVDEIADKISKNLMTVTTISNGRDLVGIDTHMKALNKKLDLNSNKSLRVVGIWARGYNGRSALAKYVYQDICHWLKVGWLKVYQDIKTASKLYVLTRWLKVAHLLHRSHHSFKTE | soluble
MAQTIQLANHSEMTIIDNDLHVDVIGNQAHFSFSGLHNKTFTDREVLFEMPFLYEHEANVIGDGFQMLAQTSGTITHPIEIGRCPDNIPPYRVYSQHAPKRYYNYLVIEDSAGYTLFGFTTCRRFAGYFDIQQRNGQWILTAAIDGEHTQVADWEHNQ | not soluble
MKEHSIDIQLSHPDDLFHLFGSNERHLRLMEEELDVVIHARTEIVQVLGEESACEEARQVIQALMVLVNRGMTVGTPDVVTAISMVKNDEIDKFVALYEEEIIKDNTGKPIRVKTLGQKLYVDSVKQHDVTFGIGPAGTGKTFLAVTLAVTALKRGQVKRIILTRPAVEAGESLGFLPGDLKEKVDPYLRPVYDALYQILGKDQTTRLMEREIIEIAPLAYMRGRTLDDAFVILDEAQNTTIMQMKMFLTRLGFHSKMIVNGDISQIDLPRNVKSGLIDAQEKLKNIHQIDFVHFSAKDVVRHPVVAQIIRAYEYSTEVAHD | not soluble
MSLKIFPSSSIKKLDAYTIEHEPIASIDLMERAAQALTKAITERWDITTPVTVFAGPGNNGGDALAVARMLAEKEYKVEAYLFNPKGELSADCQTNKELVEMMDNVKFSEVSTQFVPPTLTMDHLVVDGLFGSGLNKPLSGGFAAVVKYINASPATVVAIDIPSGLMGEENTFNVKANIIRAQLTLSLQLPKLAFLFAENSEFVGEWKLLDINLSREAIEETESNYALLEAEEIHALIKPRNTFSHKGNFGHALLIAGSYGMAGASILAARACMRSGVGLLTVHAPIRNNDILQISVPEAIIESDASDTYFACPTDTDDYQAVGIGPGIGRSEETEAALLEQLSGCQTPLVLDADALNILANHRHALTTLPKGSILTPHPKELERMVGKCQNSYERLMKACELARTAKVHIILKGAYSAIITPSGKCYFNSTGNPGMATAGSGDVLTGVVLALLAQGYPAEEAAKIGTYVHGLAGDFARKKQGVISMTAGDIISNLPLAWRLVSEGHHHHHH | soluble
MSLEKTKLPWDEFFSLNKDINHTYFTPEDFSGDEDLIAKTTEQFVKQEIVPQMENIEQHNYKVSRQLFEKAGELGLLGIEVPEDYGGFELGKAVSGLVAEKMGYAGAFSVSFNIHAGVGTLPYIYYGTKEQKEKYLPKIASGEWIGAYALTEPNAGSDALSAKTSAVLNEEGTAWKLNGEKQWITNAHMADVYVVFAKTNKGMTAFIVERTCEGVSIGLEEKKMGIKGSSTATLILEDVVIPAENVLGEVGKGHHVALNILNFARLKLAFGNIGTAKQAIGLSVQYGKERKQFQTELVDFTMIQEKIANMIIATYGAESAAYRTAGVIDEAIHESDEDLMKKMSQFAIECALNKVNASETLAYIVDEAVQIHGGYGYMQEYEVERLYRDARISRIFEGTNEINRLTVAKMLMKQIEQLEEGHHHHHH | not soluble
MGNALVKKEPPPPVVLVPPLFDYPPLSARTRMLESSYNLLFGKLALRCLFEDYFEEANRFTGKFLLKPTDDPHVDLVASVSGAVDGRVEGDFVGNAEFRWQSDVDDPHTFVDLSVSTSNPVLLMRSSAYYPKYGIGAFAVYPLISKITGKSSEEYRIMGLRYGSTNLSVGATVTPFSANNELPKHAWLVSKMGSLTVGVQYEPLHGSKDLAKYTDPRNWSCAAGYGVGSQSPLTPSFNIGIELARSSQFIASFYQHVVVQRRVQNPFEENQVVGITNYIDFGFELQSRVDDSKTPPNAPDSLLQVAASWQANKNFLLKGKVGAHSSTLSLAFKSWWKPSFAFNISATTNHRTGNVQCGFGLRVDNLREASYQRADPNFVMLTPNKEHLAEGIVWKMGKRPMYQADVDAENFSELPKELRPSQKIL | soluble
MSNSFEILMNQLGMPAEMRQAPALAQANIERVVVHKISKVWEFHFVFSNILPIEIFLELKKGLSEEFSKTGNKAVFEIKARSQEFSNQLLQSYYREAFSEGPCASQGFKSLYQNLQVRAEGNQLFIEGSEAIDKEHFKKNHLPNLAKQLEKFGFP | not soluble
